Patent publication US20110104167A1, “Compositions and Methods for Diagnosing and Treating Insulin Resistance” (YEDA RESEARCH AND DEVELOPMENT CO. LTD., priority 2004, published 2011)

Columns and labels:
Fao cells [1] = assay: Insulin-induced Tyr phosphorylation of Myc-IRS-1 in adenovirus-infected Fao cells; assay type: cell-based, rat; conditions: 60 min insulin
Description: FIGS. 3a-b show Insulin-induced Tyr phosphorylation of IRS-1^7A in Fao cells. FIG. 3a—Fao cells were infected with Ad-Myc-IRS-1^WT or Ad-Myc-IRS-1^7A at 7×10^7 PFU/ml. Following 48 hours, the cells were starved in serum-free RPMI medium for 16 h and were then treated with insulin for the indicated times. Cell extracts were prepared and samples (1 mg) were subjected to immunoprecipitation (IP) with anti-Myc antibodies. Immunocomplexes were resolved on 7.5% SDS-PAGE and immunoblotted with anti-pY antibodies. In parallel, samples (100 μg) of total cell extracts were resolved on 7.5% SDS-PAGE and immunoblotted with anti-Myc antibodies. FIG. 3b—The bands corresponding to anti-pY/total Myc-IRS-1 were quantified by densitometry and are presented as a bar graph. Results are of a representative experiment carried out in duplicate.
FIGS. 11a-c show the effects of TPA and anisomycin on insulin-stimulated Tyr phosphorylation of IRS-1^WT, IRS-1^7A and IRS-1^408A. Fao cells were infected with Adeno-myc-IRS-1 wild type (WT); the 7A mutant; or the S408A mutant at a titer of 4-6×10^7 PFU/ml. Following 48 hours the cells were deprived of serum for 16 h, and were then treated for 60 min with 200 nM TPA (FIG. 11a), or 50 ng/ml anisomycin (FIG. 11b), followed by treatment with 100 nM insulin for the indicated times. […]

Fao cells [2] = assay: Effect of inducers of insulin resistance on insulin-stimulated Tyr phosphorylation of IRS-1 in Fao cells; assay type: cell-based, rat
Description: FIGS. 5a-c show the effects of TPA and anisomycin on insulin-induced Tyr phosphorylation of IRS-1^7A in Fao cells. Fao cells were infected with Ad-Myc-IRS-1^WT or Ad-Myc-IRS-1^7A at 7×10^7 PFU/ml. Following 48 hours the cells were deprived of serum for 16 h, and were then treated for 60 min with 200 nM TPA (FIG. 5a); 50 ng/ml of anisomycin (FIG. 5b) or 1 μg/ml of anisomycin (FIG. 5c). This was followed by treatment with 100 nM insulin for 2 min (FIG. 5a) or for the indicated times (FIGS. 5b-c). Cell extracts were prepared, and samples (1 mg) were subjected to immunoprecipitation (IP) with anti-Myc antibodies (FIG. 5a). Immunocomplexes were resolved on 7.5 SDS-PAGE and were immunoblotted with the indicated antibodies. Alternatively, total cell extracts (FIGS. 5b-c) were resolved on 7.5% SDS-PAGE and immunoblotted with the indicated antibodies. Results of a representative of four experiments are presented. The results of two independent experiments done in duplicates were quantified (FIG. 5a, right panel).
FIGS. 6a-b show the dose dependent effect of Palmitic acid on Insulin-induced Tyr phosphorylation of IRS-1 mutants in Fao cells. Fao cells were infected with Ad-Myc-IRS-1^WT or Ad-Myc-IRS-1^7A at 7×10^7 PFU/ml. Following 24 hours the cells were deprived of serum for 12 h, and were then further incubated for 12 h with or without the indicated concentrations of palmitic acid in serum free medium prior to being stimulated with 100 nM insulin for the indicated times. Cell extracts (100 μg) were resolved on 7.5% SDS-PAGE and immunoblotted with anti-PY and anti-Myc antibodies. The results of two independent experiments done in duplicates were quantified.
FIGS. 11a-c show the effects of TPA and anisomycin on insulin-stimulated Tyr phosphorylation of IRS-1^WT, IRS-1^7A and IRS-1^408A. Fao cells were infected with Adeno-myc-IRS-1 wild type (WT); the 7A mutant; or the S408A mutant at a titer of 4-6×10^7 PFU/ml. Following 48 hours the cells were deprived of serum for 16 h, and were then treated for 60 min with 200 nM TPA (FIG. 11a), or 50 ng/ml anisomycin (FIG. 11b), followed by treatment with 100 nM insulin for the indicated times. Cell extracts were prepared, samples (1 mg) were subjected to immunoprecipitation (IP) with anti-Myc antibodies. Immunocomplexes were resolved on 7.5% SDS-PAGE and immunoblotted with anti-PY or anti IRS-1 antibodies.
Infection of Fao cells with adenovirus—Fao cells were grown in RPMI medium containing 10% FCS. At 70% confluence cells were infected with adenoviruses harboring the gene of interest at a titer of 7 10^7 PFU/ml. After incubation for 2 h hours at 37° C., the virus-containing medium was diluted 1:5 in fresh RPMI medium. After 24 h the medium was replaced with a fresh RPMI medium containing 10% FCS. […]

B1: IRS-1^408A: mouse IRS-1 with Ser408 mutated to Ala (protein)
chain: MEQKLISEEDLNMASPPPDTDGFSDVRKVGYLRKPKSMHKRFFVLRAASEAGGPARLEYYENEKKWRHKSSAPKRSIPLESCFNINKRADSKNKHLVALYTRDEHFAIAADSEAEQDSWYQALLQLHNRAKAHHDGAGGGCGGSCSGSSGVGEAGEDLSYDTGPGPAFKEVWQVILKPKGLGQTKNLIGIYRLCLTSKTISFVKLNSEAAAVVLQLMNIRRCGHSENFFFIEVGRSAVTGPGEFWMQVDDSVVAQNMHETILEAMRAMSDEFRPRSKSQSSSSCSNPISVPLRRHHLNNPPPSQVGLTRRSRTESITATSPASMVGGKPGSFRVRASSDGEGTMSRPASVDGSPVSPSTNRTHAHRHRGSSRLHPPLNHSRSIPMPSSRCSPSATSPVSLSSSSTSGHGSTSDCLFPRRSAASVSGSPSDGGFISSDEYGSSPCDFRSSFRSVTPDSLGHTPPARGEEELSNYICMGGKGASTLAAPNGHYILSRGGNGHRYIPGANLGTSPALPGDEAAGAADLDNRFRKRTHSAGTSPTISHQKTPSQSSVASIEEYTEMMPAAYPPGGGSGGRLPGYRHSAFVPTHSYPEEGLEMHHLERRGGHHRPDTSNLHTDDGYMPMSPGVAPVPSNRKGNGDYMPMSPKSVSAPQQIINPIRRHPQRVDPNGYMMMSPSGSCSPDIGGGSSSSSSISAAPSGSSYGKPWTNGVGGHHTHALPHAKPPVESGGGKLLPCTGDYMNMSPVGDSNTSSPSECYYGPEDPQHKPVLSYYSLPRSFKHTQRPGEPEEGARHQHLRLSSSSGRLRYTATAEDSSSSTSSDSLGGGYCGARPESSLTHPHHHVLQPHLPRKVDTAAQTNSRLARPTRLSLGDPKASTLPRVREQQQQQQSSLHPPEPKSPGEYVNIEFGSGQPGYLAGPATSRSSPSVRCPPQLHPAPREETGSEEYMNMDLGPGRRATWQESGGVELGRIGPAPPGSATVCRPTRSVPNSRGDYMTMQIGCPRQSYVDTSPVAPVSYADMRTGIAAEKASLPRPTGAAPPPSSTASSSASVTPQGATAEQATHSSLLGGPQGPGGMSAFTRVNLSPNHNQSAKVIRADTQGCRRRHSSETFSAPTRAGNTVPFGAGAAVGGSGGGGGGGSEDVKRHSSASFENVWLRPGDLGGVSKESAPVCGAAGGLEKSLNYIDLDLAKEHSQDCPSQQQSLPPPPPHQPLGSNEGNSPRRSSEDLSNYASISFQKQPEDRQ
In the case of B1, the “Tyr phosphorylation level after prolonged insulin treatment (Example 9)” value (Fao cells [1]) is reported as “reduced to a similar extent”, the “protection against the inhibitory effects of anisomycin” value (Fao cells [2]; 50 ng/ml anisomycin 60 min) is reported as “could not protect” and the “protection from the inhibitory effects of TPA on insulin-stimulated Tyr phosphorylation” value (Fao cells [2]; 200 nM TPA 60 min) is reported as “partially prevented”.
